Measured values: patent publication JP2023550785A
Read-outs that look alike come from different tables or passages of the source.

Assays:
[1] = biological target: SARS-CoV-2 (BetaCoV/Wuhan-Hu-1/2019) prefusion-stabilized spike (S) protein / S ectodomain trimer (SARS-CoV-2 (BetaCoV/Wuhan-Hu-1/2019)) (UniProt P0DTC2); assay: SPR (Biacore T200), S ectodomain trimer captured, Fab as analyte
[2] = biological target: SARS-CoV-2 (BetaCoV/Wuhan-Hu-1/2019) prefusion-stabilized spike (S) protein / S ectodomain trimer (SARS-CoV-2 (BetaCoV/Wuhan-Hu-1/2019)) (UniProt P0DTC2)

antibody S2P6 (antibody 420 1 1), human monoclonal antibody expressed as recombinant human IgG1, sequence (VH): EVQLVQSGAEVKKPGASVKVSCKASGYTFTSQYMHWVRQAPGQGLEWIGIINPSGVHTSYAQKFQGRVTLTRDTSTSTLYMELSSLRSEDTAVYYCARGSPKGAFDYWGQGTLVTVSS
antibody S2P6 (antibody 420 1 1), human monoclonal antibody expressed as recombinant human IgG1, sequence (VL): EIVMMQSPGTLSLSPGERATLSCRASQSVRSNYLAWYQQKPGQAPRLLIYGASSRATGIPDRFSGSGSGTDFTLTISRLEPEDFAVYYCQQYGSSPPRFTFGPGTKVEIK
S2P6 Fab fragment, sequence (VH): as the sequence (VH) above
S2P6 Fab fragment, sequence (VL): as the sequence (VL) above

Substance	Kd [1] [nM]	Kd [2] [nM]	koff [2] [s⁻¹]	kon [2] [M⁻¹ s⁻¹]
S2P6 Fab fragment	7	–	–	–
antibody S2P6 (antibody 420 1 1), human monoclonal antibody expressed as recombinant human IgG1	–	< 0.001	< 1e-07	453000
